According to the DeepSol protein solubility set:

assay: soluble on expression in E. coli; label from the status in PepcDB or PDB records

**Q.** Which “soluble on expression in E. coli” value does the source give for “MGSDKIHHHHHHMKLAVISSIYKNDSLSKIKQSLQSLLNQENVTCDIYLYCDGPVSIDIVHFLDSFDQNSLYIFKQEQNRGLAHALNELLNIVLTKEYEYIARMDADDISMPERFVKQIAFMNSHPDIDCLGTWAIEIDDDGKEYFRKKMPITHEECLELFKKRDCMIHPTVMFRRSYFEKAGLYPEDTYFGEDTMMWAKGFKSGCKFANVPEYLFKFRLDSNFFERRRGWKHAKSIYTLRHRVNRMLGFGWKEDCYALLYAMAKLMPKSILDIIYKTVR” here?
**A.** not soluble

**Q.** With “MGSDKIHHHHHHMKLDINICNNIKSIRTRLGMSQQDLANIAGVTRQTISGVESGQYAPSVAITLRLAKALGCQVENLFWLEDDLPEIEAVLAKPVPTGQQLRVSLAKVGGQWIAYPLVGKEAFRMEMIPADGRAESQTHTNKVQVRLLDDLDKLQNTVVIAGCTPVISFLARATERWHPQLRVHYHFANSMAALRSLNRGEVHIAGMHLYDPQTGEHNIPFAREALDGRSAVLITLGIWEEGLVVAPGNPMEIKSLSDLVELEATIINREPGSGSRMLLERKLKEEKVSANTIKGYEHIVHSHQDVALSIAAGIADAGVSTASVAAAFGLGFIPLHQARYDLVILKEYLEEAPVQQFLSILGHRLVQSQLEVLGGYDISDIGEVVATI” as the sequence, how does the “soluble on expression in E. coli” value read?
**A.** not soluble

**Q.** For “MGSDKIHHHHHHMKLRLRKPMRSAGNMSSLVDFYNDFITRHGFEERKGIEETLRYLENGHNVILKAPTGYGKTTLTMILANAVSSNIDIGSRVIHVLPYRAIVQDLYLKLKKYADKGIIYTKSIGAQDMDYHDSPFFMKKVNVTTLDTFILNLFKLPTIDFKLIFKNYGSHYEFPRALIYSSIVIFDEFHLLGEDGKSLGAGLSAIEVLSDAGVPIVVTSATIDKGLERVLMDKLGKSGKVVYASDFKIDRKIYVNELEKDEISIADEKVKEGKRVLLVYNTRMGAIEAYWKLKERGLSPILIHSKFSKKDRIDKVNKINDAKLVVSTQVIEAGIDTSFDVLITEACPSHNLIQRAGRVARYGKGGKGKLEGEVYIFPFSGKVYNEGEVKETMKRVRKLKTIDESLLIERDYTKEIDSILARDLSVIDNSVFVDYKKVKSLYENICSITRETSIILGFPPNSDNVDDAIPLTEEEAIKIIKSKGSSAFVGNSNIKLYAGKCLQLEMIKNDILGVRIQDYNSEIGGVY”, which “soluble on expression in E. coli” value is on record?
**A.** not soluble

**Q.** For “MGSDKIHHHHHHMKLSVKIAGVLTVAAAAMTAKMYATAKGNHLKTHTFPLSKMKGKPPLTIFFISDIHKRLIDQDLLEKARSHAPHLVIIGGDLAEGGVPSARIEENIKRLVHFGVPIVFVWGNNDYEVRQHKLYSIFKAHGVITLRNESVPFSYNGHTIAIAGVDDIRMEMDHYEEAIKELDESQLNILVCHNPEIHEQINEDDGIDVILSGHTHGGQIRFGKFGPYELGKTGIVKNAAYLISNGYGTTKVPLRLGAEPETHIVTLCGPE”, which “soluble on expression in E. coli” value is on record?
**A.** not soluble

**Q.** Which “soluble on expression in E. coli” value does the source give for “MGSDKIHHHHHHMKNHTYKEIKNIYGKISPFEFKDKLIDIAKYTAKENNRELLDAGRGNPNWTCSTAREAFFTFGHFAITETRSNWDLGHLAGMPQKKGIKERFFKFINENIDMPGAYLARDIINFGINELGFDGDEFVHELADGIIGDNYPLPDRMLPHMEKIVHDYLVQEMKYDISGKYGDVEIFAVEGATAAMCYIFDSLMANELLKKGDTIALMTPIFTPYLEIPNLPRYDFKVVNINANEVDEKGAHTWQYTKKELEKLRDKSIKALFVVNPNNPASIAMDETSCNNLIDVIENYNKDLMIISDDVYGTFVEDFSSLMSKLPYNTVGVYSYSKYFGVTGWRLGTFALHKKNVFDKKINDLTGELKKSVDKRYSDMSLNPSSLSFMERVVADSRLVALNHTAGLSTPQQVQMAFFSAFALIDKVDAYKKLNMSICHRRQKLLFEALELPINENKNNAAYYTQFDIEEWAKLNYGEDLFKFISKTASPVDVLYKLANDYSVVLLSGNGFYGPEWSIRISLANLYDEAYTKIGKAIREILNGYIVEWQKIKK” here?
**A.** not soluble

**Q.** Which “soluble on expression in E. coli” value does the source give for “MGSDKIHHHHHHMKNLEQRKSWYAEVAINYTSQQRKNWYNDVADAYNRTRPRYPQQLVSRVVELAQLPQNAAILEVGCGPGTATTAFAQLGFSMVCLEPSQNSSQLAQQNCSPYPNVEIINTSFEEWPLEPGKFDAVLAATSFHWVSPEIGYSKAADALKDHCSLILLWNMTPQPEYEVYQRLHEVYQAQAPTLERYEEQEAQEKHLRRFGKAVIDSGRFQDLVSEQLRCDVTYSIDDYLTLLSTLSPYIALDSQQRNSLFTSLRETLEKHCGSSVEISYLSAFHVAKKI” here?
**A.** not soluble

**Q.** With “MGSDKIHHHHHHMKNNFLVNFILLHGYSLDNSSLMFGKMGYSLILFEYSHYFKDALAEKHAFELLQEVLASPMKSNTFNEGKMGIAWSLIHLIEKEYIEADYLELYGQEHKEIVAFIKQLKTDMNNIVSKNDAISFLIASKSYIQESDFDEILPNLIENLYDYLKQIPKSLFERNLFYYHATKMLCLYNLYEELSIRGETLIDIIVQTHKKLISDKHVCTNISFGVNLLQYGLCHKRKDIIKLANAIIKCYFSNMVLETLNLKESIDAIYNLNKLQLLNKESEWTSLKKQLSSLLFNKESYLYKENRLTLSRLKGGIPQLLLMECLNFQDIKSTGHYIMLK” as the sequence, how does the “soluble on expression in E. coli” value read?
**A.** not soluble

**Q.** For “MGSDKIHHHHHHMKPLAYRMRPQSIDQVVGQQHLVGPKKIIRRMVEARQLSSMILYGPPGIGKTSIASAIAGSSKYAFRQLNAATDGQKELSQVAAEGKMSGTVVLLLDEIHRLNKVKQDFLLPLLESGQVIMIGATTENPYLAISPAIRSRCQIFELKPLTEEEILTAVDRALTDEERGLGKYHAKLTKEAGEFLAQKGNGDLRATLNSLELAVLSTKQELEAEGKDASSLTVTLDDMADSLQMKIQNFDADGDGHYDLLSAFQKSIRGSDTDAGLHYLGRLLESGDLVSICRRLSVIAYEDIGLANPPACERVILAVQAAQQLGLPEARIPLANAVIELCLSPKSNSAMTAIDAALADIRQSNVGQIPDQLKDAHYKGASKLGHGTGYLYPHDYPGDWVAQAYLPDRMQGKQYFAPKGESKFEAAFKSQYQRLHDLQKAGLKGK”, which “soluble on expression in E. coli” value is on record?
**A.** not soluble

**Q.** Which “soluble on expression in E. coli” value does the source give for “MGSDKIHHHHHHMKQIDLVYRTAFAELAQRTFDAQFQADFPLEGRFVAVPVKGRNYWYFDLPTPEGKDKRRYVGPQDDVDITARVKAHRQVKDDIRERRKLVGMLLRSGGMSAPDRFAGEVTKALADAGLFRLRALLVGSVAFSCYSGLLGVRLPGTSMQTGDADFAQDFAISAEVEDSLPPILDLLRSIDSTFRAVPHQADNAKVVAFSNSVNYRVEFLTTNRGSDDYTGKPSPMPALGGASAENLRFLDFLIYEPVRTVLLHREGVSVNIPAPERYAIHKLIVASRRRTDALGRAKRDKDLVQASLLCEALVETRQSHLLADAYREAWTRGEAWQEGILSGLVLMPDNGKLALANALGVTVDRLGKA” here?
**A.** not soluble

**Q.** For “MGSDKIHHHHHHMKQVDYIIVGQGLAGSCLVQSLWHEKQSVVVIASSERKASSTVAAGLYNPITGKKMLLTWNAAVLFPYLDLFYRSAERELDTTILYPKAIVRPFTDIQAQNDFWAKSTPEIAAFAEPEQNIEKYDPYIWFPYGGLITKHSGYVDVQAFLGAIKQKLVEKDQYIEETFDHAALQFSTNSVAYKGIQAKKIIFAEGFHNTRNPIFNWVPVKGMKGDVLTLDIEAYALKEVVNKHFFIIPLPNGKFRMGSSYIREFEDDAPTEGGLKEITEGAHTILKKPFVVIEQKAGIRPVVPDHRPIIGEHPEQPLALIFNGLGTKGVSIAPYASKTLTNFLLLNQEIDQSMSVNRFNYLYFKQKNN”, which “soluble on expression in E. coli” value is on record?
**A.** not soluble

**Q.** Which “soluble on expression in E. coli” value does the source give for “MGSDKIHHHHHHMKRRPTINDVAKLAGVSISTVSRYLKDPSQVSEKLGERIREAIKKLGYKPNKIAQGLRTGDSKMIGFIVPDITNPAFLTIVKGAEDFLRKKGYSFIIGGTDHKSKDEVVILESFIFHNVDGVIVTCTGYENKALKELIERYHLKLVFVDRRYPGIDAPYIGVDNFGGVARMVDYLVETGHRSFAYLCGDMTSTAKERLEGFLDRMKKYKIKDYQVLYGEFTFESGYKLTKRLSKIPDAIIAGNDLMAFGVIEALKERGLVVPEDVSVTGFDDMFFSKYYKPSLTTVRQDLYEMGKQAGKVLFALISGKKIRKKEYILPTEIVIRDSVKERRA” here?
**A.** not soluble

**Q.** Which “soluble on expression in E. coli” value does the source give for “MGSDKIHHHHHHMKRSEKKSMSSALKNGIMERTQPEKVVQMQGTADLSTSKLGTKKYWDELYALELENFRRNPQDTGDCWFSDSDAEQKMIDFLVDNIGAYRISENASVVDLGTGNGHMLFELHQTEFQGKLVGIDYSEESVKLASNIAEATGVDNFISFQQADIFSGDWKPGKYDIVLDKGTLDAISLSGMKINGKLDVVDVYAGVVERILKKDGIFLITSCNFTQDELVKIIETDNLKMWKTIKYPVFQFGGVQGATICSVAFVKQN” here?
**A.** not soluble

**Q.** With “MGSDKIHHHHHHMKRSQINEIMAEAETFMRSFGFVLPPFAYWTPEEMRANASVAKAVIDGRLGWDITDYGEGKFDELGLFLFTLRNGRLSDLQAGGGMCYAEKLLISKQDQISPMHRHMLKAEDIINRGGATMAIELNGSAPDGSFDPDAGGVVMCDGIERRFSAGEVLLFAPGESVTLMPGDWHKFWGEGGDVLIGEVSTVNNDDTDNWFREPIGRFAAVDEDVAPTHLLVSDYGTWL” as the sequence, how does the “soluble on expression in E. coli” value read?
**A.** not soluble

**Q.** For “MGSDKIHHHHHHMKSPEEVTKWVRQRYQRQRWAWLDGGGAWPLQVSLDLPTQKVALADPSAVRTWSSSWADWLAVHPADASRPLPELLTATVAWRNMGEQTLPGALAFSSPECVADYCGDGKVWRRIVSRRATMLARWPALHASGFGSNYTALGEFKDEDFERLLAVLEWLVANPKSGIYLRQLPVPNIDTKWIDLQRRGVVADLFSRIIKPQAALQAVQSFVEGEGAEIDATGQAYSIEKESSNFYDTCGLLRPPVKLRILILCPKLRTQVGGLRDIEATIEDWAQLQLKPRQLLVVENKDTCLAMPDVDGVVAVIKLGNAVALVTRIAWLVRVPVLYWGDIDTYGYSILVQARKKLHDVRSVLMDRSTVETHLDRLVEEGQQTKSIDRSLLTAAELDVYDALLAHDWGTSRRLEQERLEWPSALRTVLSALHQRESKSA”, which “soluble on expression in E. coli” value is on record?
**A.** not soluble

**Q.** Which “soluble on expression in E. coli” value does the source give for “MGSDKIHHHHHHMKSYIIVGAGILGASTAYHLAKTGARVTVIDRKEPGQATDAAAGIVCPWLSQRRNQDWYQLAKGGARYYKDLIHQLEKDGESDTGYKRVGAISIHTDASKLDKMEERAYKRREDAPEIGDITRLSASETKKLFPILADGYESVHISGAARVNGRALCRSLLSAAEKRGATVIKGNASLLFENGTVTGVQTDTKQFAADAVIVTAGAWANEILKPLGIHFQVSFQKAQIMHFEMTDADTGSWPVVMPPSDQYILSFDNGRIVAGATHENDAGLDDLRVTAGGQHEVLSKALAVAPGLADAAAVETRVGFRPFTPGFLPVVGAVPNVQGLYAANGLGASGLTMGPFLGAELAKLVLGKQTELDLSPYDPAGALA” here?
**A.** not soluble

**Q.** With “MGSDKIHHHHHHMKTDFTIREAQQTDTIALKELFQNTVLAVNSKDYSQAEVEDWASCGDDLSNIEEMIKTHYFIVAVNQQSQIVGFSSITSQGYLHSMFVHKDFQGKGIATMLLEEIERYAITAGIMRITSEVSLTARPFFEKKGYIVKEEQKRKANQLSLTNFWMAREMAKIKPYNGRIPACGVFCGGCPIYTREKRACRGAELNHSRCEKCKTFHLCCFGKKITHCFQCSNFPCTRFKGFAKRWQKHGQDFIENQKLLSEIGEVAFLEYYNKKVTD” as the sequence, how does the “soluble on expression in E. coli” value read?
**A.** not soluble

**Q.** For “MGSDKIHHHHHHMKTIAIRDVTGIMEPLPGFSVVRTDGSDGQRSIKLNGYKTTNNQYGYQFVKNENTVVYDDEEYIIKTHRERTYRKGVGVEATAIHRIFDDLRNNYIYDEKTGTLRLDAMLSFALEGSGYTFEIDTTDLPASVRVENFGWNNSLALFRDILEKFGAEFDYKGKKIYVAKKFGIQRDEPFLRYRFNVKDPEKEIDTSSFATYIRGYGKKDDKGNYLFAEYTSPLAKIYGIKHADPVKDERYTDKDSLLAAMKKQLNDNIDISLTFTAIELESMGLRDIKKGDYVWCVIEPFDLNVQLRAVSREDYSDETKSPTFTFGTITKKASDIIASFNTTKKAVDKVIDTSTGKIKDSAIDTTGLTTKSEFQSHVDNKIVHITAEERAAWNAASNSIGDLTFITWSTPTLKNGWIQYTANTESYPIQYGKDAIGTVNIRGAVSSGVVGSSTPVFTLPAGFRPPFPHLFIGVSSVATDGTPQYFRGIIKTNGDVCIENISNKDTPNQFIGIYTQFKAI”, which “soluble on expression in E. coli” value is on record?
**A.** not soluble
